Tests used:
[1] = biological target: T1, soluble-type human DSG3-mouse IgG2aFc fusion protein (human; mouse, UniProt P32926 50-616); test: sandwich ELISA, luminescence over blank; immobilized DF151, detection D219-3; antigen 1 pg/mL
T1 construct: also called human desmoglein 3; desmoglein 3 standard; not shown: mouse IgG2a Fc, printed 'mouse IgG2aFc' and 'mouse IgG2 constant region'
T1 sequence: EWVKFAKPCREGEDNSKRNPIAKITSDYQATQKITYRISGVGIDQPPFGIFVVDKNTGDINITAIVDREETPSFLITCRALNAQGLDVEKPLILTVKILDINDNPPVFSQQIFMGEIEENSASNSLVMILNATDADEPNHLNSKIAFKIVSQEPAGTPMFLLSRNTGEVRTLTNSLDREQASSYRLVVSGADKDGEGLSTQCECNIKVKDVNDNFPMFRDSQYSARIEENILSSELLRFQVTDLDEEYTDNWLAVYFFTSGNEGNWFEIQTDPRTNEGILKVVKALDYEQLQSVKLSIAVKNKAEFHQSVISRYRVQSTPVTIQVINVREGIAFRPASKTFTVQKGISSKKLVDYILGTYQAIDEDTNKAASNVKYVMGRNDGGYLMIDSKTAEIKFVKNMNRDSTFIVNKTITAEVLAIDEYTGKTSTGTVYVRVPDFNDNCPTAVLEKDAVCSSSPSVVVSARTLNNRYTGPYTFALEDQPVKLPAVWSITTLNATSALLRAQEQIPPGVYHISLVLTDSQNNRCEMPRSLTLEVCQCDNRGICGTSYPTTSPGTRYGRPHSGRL
Experimental: (§1) Subsequently, the antigen solutions having the above-described concentrations were each added to the plate in an amount of 50 μL/well, and the plate was incubated at room temperature for 1 hour. Then, the antigen solution was removed, and the plate was washed with 0.05% Tween 20-PBS three times. Thereafter, the 1-μg/mL biotinylated antibody solution was added in an amount of 50 μL/well, and the plate was incubated at room temperature for 1 hour.
(§2) Then, after removing the streptavidin-HRP solution and washing the plate with 0.05% Tween 20-PBS three times, a substrate solution (SuperSignal ELISA Femto Maximum Sensitivity Substrate (registered trademark); Pierce Biotechnology, Inc.) was added in an amount of 100 μL/well. One minute thereafter, the luminescence intensity was measured using a luminometer, Fluoroskan Ascent FL (trade name, Thermo Electron Corporation).
(§3) The numerical values shown in Table 1 represent the minimum values of the antigen solution concentration having an S/N ratio of higher than 2 (hereinafter, referred to as “detection limit concentration”) and the unit of the numerical values is pg/mL. […]

[2] = biological target: T1, soluble-type human DSG3-mouse IgG2aFc …; test: sandwich ELISA, luminescence over blank; immobilized DF151, detection D219-3; antigen 40 pg/mL
Experimental: as §1, §2
(§4) The numerical values shown in Table 1 represent the minimum values of the antigen solution concentration having an S/N ratio of higher than 2 (hereinafter, referred to as “detection limit concentration”) and the unit of the numerical values is pg/mL. The S/N ratio was determined by dividing the luminescence intensity at the respective antigen solution concentrations ([…]) by the luminescence intensity of an antigen-free blank antigen solution (0 μg/mL).

[3] = biological target: T1, soluble-type human DSG3-mouse IgG2aFc …; test: sandwich ELISA, luminescence over blank; immobilized DF151, detection MAB1720; antigen 1 pg/mL
Experimental: as §1, §2, §3

[4] = biological target: T1, soluble-type human DSG3-mouse IgG2aFc …; test: sandwich ELISA, luminescence over blank; immobilized DF151, detection MAB1720; antigen 5000 pg/mL
Experimental: as §1, §2, §4

[5] = biological target: T1, soluble-type human DSG3-mouse IgG2aFc …; test: SPFS sandwich; immobilized DF151, detection D219-3; antigen 1,000 pg/mL (µg/mL in the source)
Experimental: (§5) Once again, a Tris-buffered saline (TBS) containing 0.05% by mass of Tween 20 was fed and circulated in the flow path for 10 minutes to wash the flow path. Then, with the flow path being filled with PBS buffer (pH 7.4), the assay area was irradiated with laser light (640 nm, 40 μW) from the back side of the metal thin films, and the fluorescence intensity was measured using a photomultiplier tube (PMT) arranged above the assay area. The thus measured value was defined as “signal” (S) at a desmoglein 3 concentration of 100 μg/mL.
(§6) On another front, the fluorescence intensity was also measured by the same procedures as described above, except that a PBS solution containing no desmoglein 3 (0 μg/mL) was fed in place of the PBS solution containing 100 μg/mL of desmoglein 3. The thus measured value was defined as “noise” (N).
(§7) Further, the fluorescence intensity was measured by the same procedures as described above, except that the desmoglein 3 concentration of the fed PBS solution was changed to 10,000 μg/mL, 5,000 μg/mL, 1,000 μg/mL, 200 μg/mL, 50 μg/mL, 10 μg/mL, 3.16 μg/mL, 1 μg/mL, 0.316 μg/mL, 0.1 μg/mL and 0.031 μg/mL. The thus measured values were each defined as “signal” (S) at the respective concentrations.

[6] = biological target: T1, soluble-type human DSG3-mouse IgG2aFc …; test: sandwich ELISA, luminescence over blank; immobilized DF151, detection DF151; antigen 25000 pg/mL
Experimental: as §1, §2, §4

[7] = biological target: T1, soluble-type human DSG3-mouse IgG2aFc …; test: sandwich ELISA, luminescence over blank; immobilized DF151, detection DF151; antigen 200 pg/mL
Experimental: as §1, §2, §4

[8] = biological target: T1, soluble-type human DSG3-mouse IgG2aFc …; test: sandwich ELISA, luminescence over blank; immobilized DF151, detection DF151; antigen 40 pg/mL
Experimental: as §1, §2, §4

[9] = biological target: T1, soluble-type human DSG3-mouse IgG2aFc …; test: sandwich ELISA, luminescence over blank; immobilized DF151, detection MAB1720; antigen 1000 pg/mL
Experimental: as §1, §2, §4

[10] = biological target: T1, soluble-type human DSG3-mouse IgG2aFc …; test: SPFS sandwich; immobilized DF151, detection MAB1720; antigen 1,000 pg/mL (µg/mL in the source)
Experimental: as §5, §6, §7

[11] = biological target: T1, soluble-type human DSG3-mouse IgG2aFc …; test: sandwich ELISA, luminescence over blank; immobilized DF151, detection DF151; antigen 1000 pg/mL
Experimental: as §1, §2, §4

S/N ratio [1]: 0.8
S/N ratio [2]: 0.8
S/N ratio [3]: 1
S/N ratio [4]: 17.7
S/N ratio [5]: 24.4
S/N ratio [6]: 55.2
S/N ratio [7]: 1.2
S/N ratio [8]: 0.9
S/N ratio [9]: 4.1
S/N ratio [10]: 60.8
S/N ratio [11]: 2.8
B1: DF151 (DF151[I] antibody) (antibody, mouse IgG2b, kappa, V domains shown)
VH: EVQLQQSGPELVKPGASVKISCKASGYSFTAYYMHWVKQSPEKCLEWIGQINPSTGGTTYNQKFKAKATLTVDKSSSTAYMQLKSLTSEDSAVYYCARWGDSWGQGTTLTVSS
VL: DIVLTQSPASLAVSLGQSVTISCRASESVEYYGTSLMQWYQQKPGQPPKLLIYGASDVESGVPARFSGSGSGTDFSLNIHPVEEDDIAMYFCQQSRKVPYTFGSGTKLEIKR
notes: Complete antibody; Biotinylated as detection antibody in ELISA; labeled with Alexa Fluor 647 as detection antibody in SPFS; also called DF151 antibody

Reference: patent US20150276749A1 (KONICA MINOLTA, published 2015)
